What was measured:
[1] = target: cynomolgus PD-1 protein (construct not stated) (cynomolgus) (UniProt B0LAJ3); assay: ELISA, second round mutagenesis library screen; unit not given
[2] = target: T1, cynomolgus PD-1 protein (construct not stated) (cynomolgus, UniProt B0LAJ3 25-170); assay: as above
T1 construct: not shown: tag or Fc carrier of the recombinant (Sino Biological) cynomolgus PD-1
T1 sequence (B0LAJ3 entry or part of it limits assumed, form in doubt): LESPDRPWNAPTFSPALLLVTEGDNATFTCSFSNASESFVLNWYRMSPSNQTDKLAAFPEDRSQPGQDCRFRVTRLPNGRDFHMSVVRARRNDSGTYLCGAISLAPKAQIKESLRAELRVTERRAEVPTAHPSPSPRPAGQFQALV

Chain of cynomolgus PD-1 protein (construct not stated) (cynomolgus) (B0LAJ3 entry or part of it limits assumed): as the sequence (B0LAJ3 entry or part of it limits assumed, form in doubt) above

B1: L1I (antibody, V domains shown)
VH: QVQLVQSGAEVKKPGSSVKVSCKASGFTFTTYYISWVRQAPGQGLEYLGYINMGSGGTNYNEKFKGRVTITADKSTSTAYMELSSLRSEDTAVYYCAIIGYFDYWGQGTMVTVSS
VL: DVVMTQSPLSLPVTLGQPASISCRSSQSLLDSDGNTYLYWFQQRPGQSPRRLIYLVSTLGSGVPDRFSGSGSGTDFTLKISRVEAEDVGVYYCMQLTHAPYTFGQGTKLEIK
Bmax [1]: 0.0517

B2: 2E5 (antibody, V domains shown)
VH: QVQLVQSGAEVKKPGSSVKVSCKASGFTFTTYYISWVRQAPGQGLEYLGYINMGSGGTNYNEKFKGRVTITADKSTSTAYMELSSLRSEDTAVYYCAIIGYFDYWGQGTMVTVSS
VL: DVVMTQSPLSLPVTLGQPASISCRSSQSLLDSDGGTYLYWFQQRPGQSPRRLIYLVSTLGSGVPDRFSGSGSGTDFTLKISRVEAEDVGVYYCMQLTHWPYTFGQGTKLEIK
Bmax [2]: 1.72

B3: 2B1 (antibody, V domains shown)
VH: QVQLVQSGAEVKKPGSSVKVSCKASGFTFTTYYISWVRQAPGQGLEYLGYINMGSGGTNYNEKFKGRVTITADKSTSTAYMELSSLRSEDTAVYYCAIIGYFDYWGQGTMVTVSS
VL: DVVMTQSPLSLPVTLGQPASISCRSSQSLLDSDGNTYLYWFQQRPGQSPRRLIYLVSTLGSGVPDRFSGSGSGTDFTLKISRVEAEDVGVYYCMQLTHWPYTFGQGTKLEIK
Bmax [2]: 1.21

B4: 8C10 (antibody, V domains shown)
VH: QVQLVQSGAEVKKPGSSVKVSCKASGFTFTTYYISWVRQAPGQGLEYLGYINMGSGGTNYNEKFKGRVTITADKSTSTAYMELSSLRSEDTAVYYCAIIGYFDYWGQGTMVTVSS
VL: DVVMTQSPLSLPVTLGQPASISCRSSQSLLDSDGQTYLYWFQQRPGQSPRRLIYLVSTLGSGVPDRFSGSGSGTDFTLKISRVEAEDVGVYYCMQLTHENYTFGQGTKLEIK
Bmax [2]: 1.11

B5: 2C2 (antibody, V domains shown)
VH: QVQLVQSGAEVKKPGSSVKVSCKASGFTFTTYYISWVRQAPGQGLEYLGYINMGSGGTNYNEKFKGRVTITADKSTSTAYMELSSLRSEDTAVYYCAIIGYFDYWGQGTMVTVSS
VL: DVVMTQSPLSLPVTLGQPASISCRSSQSLLDSDGATYLYWFQQRPGQSPRRLIYLVSTLGSGVPDRFSGSGSGTDFTLKISRVEAEDVGVYYCMQLTHWPYTFGQGTKLEIK
Bmax [2]: 1.67

B6: 2G4 (antibody, V domains shown)
VH: QVQLVQSGAEVKKPGSSVKVSCKASGFTFTTYYISWVRQAPGQGLEYLGYINMGSGGTNYNEKFKGRVTITADKSTSTAYMELSSLRSEDTAVYYCAIIGYFDYWGQGTMVTVSS
VL: DVVMTQSPLSLPVTLGQPASISCRSSQSLLDSDGSTYLYWFQQRPGQSPRRLIYLVSTLGSGVPDRFSGSGSGTDFTLKISRVEAEDVGVYYCMQLTHWPYTFGQGTKLEIK
Bmax [2]: 1.72

B7: 1G10 (antibody, V domains shown)
VH: QVQLVQSGAEVKKPGSSVKVSCKASGFTFTTYYISWVRQAPGQGLEYLGYINMGSGGTNYNEKFKGRVTITADKSTSTAYMELSSLRSEDTAVYYCAILGYFDYWGQGTMVTVSS
VL: DVVMTQSPLSLPVTLGQPASISCRSSQSLLDSDGATYLYWFQQRPGQSPRRLIYLVSTLGSGVPDRFSGSGSGTDFTLKISRVEAEDVGVYYCMQLTHWPYTFGQGTKLEIK
Bmax [2]: 1.08

B8: 1H6 (antibody, V domains shown)
VH: QVQLVQSGAEVKKPGSSVKVSCKASGFTFTTYYISWVRQAPGQGLEYLGYINMGSGGTNYNEKFKGRVTITADKSTSTAYMELSSLRSEDTAVYYCAILGYFDYWGQGTMVTVSS
VL: DVVMTQSPLSLPVTLGQPASISCRSSQSLLDSDGGTYLYWFQQRPGQSPRRLIYLVSTLGSGVPDRFSGSGSGTDFTLKISRVEAEDVGVYYCMQLTHWPYTFGQGTKLEIK
Bmax [2]: 0.317

B9: 5C4 (antibody, V domains shown)
VH: QVQLVQSGAEVKKPGSSVKVSCKASGFTFTTYYISWVRQAPGQGLEYLGYINMGSGGTNYNEKFKGRVTITADKSTSTAYMELSSLRSEDTAVYYCAILGYFDYWGQGTMVTVSS
VL: DVVMTQSPLSLPVTLGQPASISCRSSQSLLDSDGQTYLYWFQQRPGQSPRRLIYLVSTLGSGVPDRFSGSGSGTDFTLKISRVEAEDVGVYYCMQLTHEPYTFGQGTKLEIK
Bmax [2]: 0.258

— patent US20260274954A1 (published 2026)
